Experimental data published in patent US20070166779.

T1: recombinant human SLPI
T1 chain: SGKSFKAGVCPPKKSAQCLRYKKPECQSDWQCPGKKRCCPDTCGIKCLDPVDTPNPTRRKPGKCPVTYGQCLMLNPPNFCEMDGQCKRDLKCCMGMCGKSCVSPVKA

T2: SLPI present in human saliva
T2 chain: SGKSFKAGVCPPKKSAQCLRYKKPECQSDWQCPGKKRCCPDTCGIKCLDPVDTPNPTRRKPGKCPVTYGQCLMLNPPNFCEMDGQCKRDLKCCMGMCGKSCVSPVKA


What was measured:
recombinant human SLPI = target: T1, recombinant human SLPI
[1] = target: T2, SLPI present in human saliva

Row | Protein | cleavage of rSLPI, LC/MS (1 ug rSLPI, 50 ng protease, 5 hours) (recombinant human SLPI) | cleavage of the reduced form of rSLPI (recombinant human SLPI) | cleavage of SLPI in human saliva, Western analysis [1] | cleavage of rSLPI at ten-fold excess of rSLPI (data not shown) (recombinant human SLPI) | cleavage of rSLPI, LC/MS (second peak with additional 18 mass units) (recombinant human SLPI) | cleavage of rSLPI, SDS-PAGE with Coomassie stain (rSLPI:chymase molar ratio 40:1, 37 C) (recombinant human SLPI)
1 | proteinase 3 (protein) IVGGHEAQPHSRPYMASLQMRGNPGSHFCGGTLIHPSFVLTAAHCLRDIPQRLVNVVLGAHNVRTQEPTQQHFSVAQVFLNNYDAENKLNDVLLIQLSSPANLSASVATVQLPQQDQPVPHGTQCLAMGWGRVGAHDPPAQVLQELNVTVVTFFCRPHNICTFVPRRKAGICFGDSGGPLICDGIIQGIDSFVIWGCATRLFPDFFTRVALYVDWIRSTLR | did not result in the formation of the second peak | Reduction of the rSLPI samples in the presence of the proteases did result in cleavage of the SLPI protein | The larger SLPI cleavage product was not observed when the saliva samples were incubated with cathepsin G, tryptase and proteinase 3 |  |  | 
2 | human chymase (protein) IIGGTECKPHSRPYMAYLEIVTSNGPSKFCGGFLIRRNFVLTAAHCAGRSITVTLGAHNITEEEDTWQKLEVIKQFRHPKYNTSTLHHDIMLLKLKEKASLTLAVGTLPFPSQFNFVPPGRMCRVAGWGRTGVLKPGSDTLQEVKLRLMDPQACSHFRDFDHNLQLCVGNPRKTKSAFKGDSGGPLLCAGVAQGIVSYGRSDAKPPAVFTRISHYRPWINQILQAN |  |  | exogenous chymase cleaved SLPI in the saliva sample as it did with the rSLPI | Even in a ten-fold excess of rSLPI to chymase most of the rSLPI protein was cleaved | the presence of the second peak indicated that chymase indeed cleaved rSLPI | cleavage of recombinant human SLPI was observed after rSLPI was incubated with human chymase for about 20 minutes
3 | elastase (protein) IVGGRRARPHAWPFMVSLQLRGGHFCGATLIAPNFVMSAAHCVANVNVRAVRVVLGAHNLSRREPTRQVFAVQRIFENGYDPVNLLNDIVILQLNGSATINANVQVAQLPAQGRRLGNGVQCLAMGWGLLGRNRGIASVLQELNVTVVTSLCRRSNVCTLVRGRQAGVCFGDSGSPLVCNGLIHGIASFVRGGCASGLYPDAFAPVAQFVNWIDSIIQ | did not result in the formation of the second peak | Reduction of the rSLPI samples in the presence of the proteases did result in cleavage of the SLPI protein | Minor digestion of SLPI was observed after the saliva was incubated with elastase |  |  | 
4 | cathepsin G (protein) IIGGRESRPHSRPYMAYLQIQSPAGQSRCGGFLVREDFVLTAAHCWGSNINVTLGAHNIQRRENTQQHITARRAIRHPQYNQRTIQNDIMLLQLSRRVRRNRNVNPVALPRAQEGLRPGTLCTVAGWGRVSMRRGTDTLREVQLRVQRDRQCLRIFGSYDPRRQICVGDRRERKAAFKGDSGGPLLCNNVAHGIVSYGKSSGVPPEVFTRVSSFLPWIRTTMRS | did not result in the formation of the second peak | Reduction of the rSLPI samples in the presence of the proteases did result in cleavage of the SLPI protein | The larger SLPI cleavage product was not observed when the saliva samples were incubated with cathepsin G, tryptase and proteinase 3 |  |  | 
